B1: Fab-TT (Fab)
chain 1: MDIQMTQSPSSLSASVGDRVTITCRASQDIKNYLSWYQQQPGNAPKPLIYAGSNRQSGVPSRFSGSGSETDFTLTISSLQPEDFATYYCQQTYIYPITFGQGTKVEIKRTVAAPSVFIFPPSDEQLKSGTASVVCLLNNFYPREAKVQWKVDNALQSGNSQESVTEQDSKDSTYSLSSTLTLSKADYEKHKVYACEVTHQGLSSPVTKSFNRGEGGEQKLISEEDL
chain 2: MEVQLVESGGGLVQPGGSLRLSCAASGFTIERYAMGWVRQAPGKGLEWVGTIYPWGDYTDYADSVKGRFTISRDNSKNTLYLQMNSLRDEDTAVYYCARSNYPNGMYYVMEYWGQGTLVTVSSASTKGPSVFPLAPSSKSTSGGTAALGCLVKDYFPEPVTVSWNSGALTSGVHTFPAVLQSSGLYSLSSVVTVPSSSLGTQTYICNVNHKPSNTKVDKKVEPGSGGDYKDDDDKSSDYKDDDDKHHHHHH
notes: also called Fag-TT; TNFαR-reactive Fab
B2: Fab-HT (Fab)
chain 1: not shown
chain 2: B1 chain 2
notes: also called hybrid Fab (Her-2-reactive L chain and TNFαR-reactive H chain)

Tests used:
biotinylated Her-2 = molecular target: T1, biotinylated Her-2 (human, UniProt P04626 23-652, biotinylated with Sulfo-NHS-SS-Biotin (sites not given)); assay: sandwich ELISA, biotinylated antigen captured on the stAv coating (BSA coating as control), Fab detected with HRP-labeled anti-FLAG antibody, OD 405 nm
T1 construct: also called biotinylated antigen

Her-2 = molecular target: T2, Her-2 (human, UniProt P04626 23-652); assay: ELISA, Her-2 immobilized at 1 µg/ml, detection with HRP-labeled anti-FLAG antibody, OD 405 nm
T2 construct: Bought protein (R&D systems); also called human EGFR-2 (Her-2); Her2 antigen

| Binder | binding result (biotinylated Her-2) | binding result (Her-2) |
| --- | --- | --- |
| B1 | no binding | no binding |
| B2 | – | no binding |
